Test [1] addresses β-arrestin2 (UniProt P32121). Nature of the test: direct BRET, D1R-Rluc8 and β-arrestin2-mVenus. As to conditions: reference: wild type.
The target of test [2] is β-arrestin2 (UniProt P32121). Nature of the test: bystander BRET, β-arrestin2-Rluc2 to membrane GFP-CAAX. The following applies: for percent of reference: reference: wild type.
For test [3], the target named is β-arrestin2 (UniProt P32121). Description: β-arrestin recruitment BRET, type not stated. The following applies: reference: wild type; sites S417,S421,T428,S431,T439,S441,S445,T446.
The mark [4] stands for this setting: sites S256,S258,S259,T360,S362,S372,S373,S380,T428,S431,T439,S441,S445,T446.

With “D1 dopamine receptor (D1R) (from UniProt P18901) S6A (S362A)”, the percent of reference entry with β-arrestin2 [1] (sites S362) is reported as “weaker; reference 100”.
As to “D1 dopamine receptor (D1R) (from UniProt P18901) GRK-null (14 GRK sites mutated)”, the percent of reference result with β-arrestin2 [1] (setting [4]) and with β-arrestin2 [2] (setting [4]) was “lost; reference 100” throughout.
For the substance “D1 dopamine receptor (D1R) (from UniProt P18901) Tail Total (all 20 C-terminal S/T mutated)”, in the test with β-arrestin2 [1] (sites S342,T343,T353,T354,T360,S362,S372,S373,S380,S382,S397,S398,S417,S421,T428,S431,T439,S441,S445,T446), the percent of reference result is listed as “weaker; reference 100”.
Regarding “D1 dopamine receptor (D1R) (from UniProt P18901) PKC-null”, in the test with β-arrestin2 [2] (reference: PKC-null + A259S (S259 restored), sites S259), the “other: Emax, % of WT D1R” value was “same; reference 59 ± 9.4”.
As to “D1 dopamine receptor (D1R) (from UniProt P18901) S13–S20 mutant (8 distal C-terminal S/T mutated)”, the percent of reference result with β-arrestin2 [3] is given as “weaker; reference 100”.
For “D1 dopamine receptor (D1R) (from UniProt P18901) T5V (T360V)”, the percent of reference entry in the test with β-arrestin2 [1] (sites T360) is reported as “weaker; reference 100”.
On to “D1 dopamine receptor (D1R) (from UniProt P18901) PKC-null (S259A/S397A/S398A/S417A/S421A)”, for which the percent of reference entry with β-arrestin2 [2] (sites S259,S397,S398,S417,S421) was “weaker; reference 100”.
On to “D1 dopamine receptor (D1R) T1 truncation, stop after 370 (from UniProt P18901) D1R T1 + T5V/S6A”, for which, in the test with β-arrestin2 [2] (reference: D1R T1 truncation, sites T360,S362), the “other: Emax, % of full-length WT D1R” value was “weaker; reference 112 ± 5.1”.
As to “D1 dopamine receptor (D1R) (from UniProt P18901) S2/S3/S4 mutant (S256A/S258A/S259A)”, in the test with β-arrestin2 [2] (sites S256,S258,S259), the percent of reference entry is reported as “weaker; reference 100”.
As for “D1 dopamine receptor (D1R) (from UniProt P18901) T5V/S6A (T360V/S362A)”, the percent of reference result in the test with β-arrestin2 [1] (sites T360,S362) and with β-arrestin2 [2] (sites T360,S362) was “weaker; reference 100” each time.

These data come from publication PMC10095280.
